Assay results from a protein production outcome set (Wang et al. 2014).

Assay: label from the status in PepcDB records

MKYLAFSIVFILTAFTRVTAQNLDGIDKSLSLSKMKTRARIAEETGDIYTALFYYEEVVRNDSSDLKALYQVAEMQRFTRNYKAAEVTYGKIHEIAAADYPLAQYYQGLMQKMTGRYEDAKQTFSEFRKNSAALADKTFKATLARDISGCDSGITYRDFPQNTQIKNAGKSVNFPHTEFSPVILDSTTLAFGSLRIDSVIYYDTRGEHYEKQPVRQLYEAKKVKGQWVEKGLLEAINDPAMDMGNFVYSPTTDRYYFTKCTKNHHGKVSCAIYYSERVSGKWSHPSKLPDPINIEGYTATQPTIVIDTTSSSAATTTPKNMPPRKTGGNKPVPKPVVNTIEYLYFVSDRPKGKGGLDIWYTSYNASKKTWNEPTNLAVANTPETECTPFYHVPTQTLYFSSNGLVNAGGLDIYKLEKDGRRFGRPENLSFPVNSPQDELSFVLADNAKTGFFVSNRPGGTPFFHETCCDDIFSFEVIPPPPFVCTLDLSVLDVAAKNNCDGELLNINQVNLKTKAAEKDTVRLSSCKYTVSLAQHVKYTFFINKPGYVTDTLSFETRDMCATPTITKSLTLVPVSVSMKNSEPVIETPVEGKAFVLKDIQYETNQTDLNDEAKAAIDNILIPFLKEHPTDKIIISSHTDDVGSHKYNENLSDQRALKVMQYLIQKGISAKQIQAKGYGETKPIASNINPDGSENEIGRSINRRTEFLISK
protein production: failed

MKFKRLRTSENKLYYKAMELYKISFPFHEQRKSSLQEEILKNKEYQFNLIYDKNQFVGIILCWETDDFIYVEHFCIFPEMRNNRYGQRALELLNKKGKTIILEIDLPIDEISIYRKAFYERVKYKTNNYEHIHPPYHEKFNGHNLIVMSYPEKLSKMEYDKFNHYLRNNVMSF
protein production: failed

MPQAKKRTSTKRKGNKKTNKKKQNETPLRYIFSIIVVILIILGAFQLGIIGRMIDSFFNYLFGMSRYLTYILVLIATIFITYSKQIPRTRRSIGAIVLQLALLFIAQLYFHFSHNITSQREPVLSFVYKAYEQTHFPNFGGGLIGFYLLKLFIPLISIVGVIIITILLLASSFILLLNLRHRDVTKSLFDNLKSSSNHASESIKQKREQNKIKKEEKAQLKEAKIERKKQKKSRQNNNVIKDVSDFPEISQSDDIPIYGHNEQEDKRPNTANQRQKRVLDNEQFQQSLPSTKNQSINNNQPSTTAENNQQQSQAEGSISEAGEEANIEYTVPPLSLLKQPTKQKTTSKAEVQRKGQVLESTLKNFGVNAKVTQIKIGPAVTQYEIQPAQGVKVSKIVNLHNDIALALAAKDVRIEAPIPGRSAVGIEVPNDKISLVTLKEVLEDKFPSKYKLEVGIGRDISGDPISIQLNEMPHLLVAGSTGSGKSVCINGIITSILLNTKPHEVKLMLIDPKMVELNVYNGIPHLLIPVVTNPHKASQALEKIVSEMERRYDLFQHSSTRNIEGYNQYIRKQNEELDEKQPELPYIVVIVDELADLMMVAGKEVENAIQRITQMARAAGIHLIVATQRPSVDVITGIIKNNIPSRIAFAVSSQTDSRTIIGAGGAEKLLGKGDMLYVGNGESTTTRIQGAFLSDQEVQDVVNYVVEQQKANYVKEMEPDAPVDKSEMKSEDALYDEAYLFVIEKQKASTSLLQRQFRIGYNRASRLMDDLERNQVIGPQKGSKPRQILVDLENDEV
protein production: failed

MRLVEIGRFGAPYALKGGLRFRGEPVVLHLERVYVEGHGWRAIEDLYRVGEELVVHLAGVTDRTLAEALVGLRVYAEVADLPPLEEGRYYYFALIGLPVYVEGRQVGEVVDILDAGAQDVLIIRGVGERLRDRAERLVPLQAPYVRVEEGGIHVDPIPGLFDLEHHHHHH
protein production: failed

MSAEQDKEPIALKRVRGGDSGLDGLGGPNIQLGSPDKKKRKANTQGSSFPPLSEYAPPPNPNSDHLVAANPFDDSYNTISYKPLPSSNPYLGPGYPGFGGYSTFRMPPHVPPRMSSPYCGPYSLRNQPHPFPQNPLGMGFNRPHAFNFGPHDNSNFGNPPYNNVLTQDINMPGQHFRQGSAENFSQIPPQNVGQVSNPDLASNFAPGNNSNFTSPLETNHSFIPPPNAFGQAKAPLPKQDFTQGATKTPNQNSSTHPPHLNMEDPVNQSNVELKNVNRNNVVQENSRSGSAEATNNHANGTQNKPRQPRGAADLCTPDKSRKFSLLPSRHGHSSSDPVYPCGICTNEVNDDQDAILCEASCQKWFHRICTGMTETAYGLLTAEASAVWGCDTCMADKDVQLMRTREAFGPPAVGGDA
protein production: not failed

MKIDGETRSARKDREIIQAATAAFISKGYDGTSMEEIATKAGASKQTVYKHFTDKETLFGEVVLSTASQVNDIIESVTTLLSEAIFMEGGLQQLARRLIAVLMDEELLKLRRLIIANADRMPQLGRAWYEKGFERMLASTASCFQKLTNRGLIQTGDPYLAASHLFGMLLWIPMNEAMFTGSNRRSKAELERHADASVEAFLAVYGVQPK
protein production: not failed

MYKKLILLFFILITFNLFSDEDVLVFYSQPSSIASKFVTGILQDSYGRIWFGTKEGLAYYDGIKYKNYEYIPFSKDSIQSSQIQCLYNDPRKAENGSDVFWIGTFYGVERFNVDTETFTHFDMTSSVVLCFLRDSHGRLWIGTLDGLYILNEDDGSVVKFSQASEFYIGNNGISHIYEDSEGRIYACTHEGLWEYDEPNKRFRRSRLFEKNSAVTDSIINNIFEEDGIYWVSVWDTGLFRIDPKNGKRDLFSFSNNKITCLSNEFSDNVLLIGTWGGGLISFDKNTYSYTEYTSKQRSYNLSNDFIFSIYVDTYGSLWVGTNGGGVNIYDTKRMWSKLILPHENKIDGRENSVSGLTKDKNGNLWISLLNNGITYYDLSTGKKKYYRYSESKIISNSVFKFYIDKNEDIWVGTDLGLCKYDKKKDAFVGVNLYNDNIIEDGERLIYNIISDDNEFLWIGTYDGGLIKFSPSSGILKRYKNDPKNPNSICSNLVFSLLIDSYKRLWVGTNKGLAEYKPSTDEFAIYRYDVNNRKGISSDRITSLFQDVSGKLWIGTSDGGINIFDTEKKEALNYTANEGLPANFIIGMTHMDNHSICVTAIKGMTIFNKDTEIIYSYTLYNHERRFTTVPIMIGDQCFVGTQEGVLGMDINYLLSFKRQEVPVKIRTIGINGNQTPVFKIDLQKTYKYKYSENNISFEFSSMDLSPLSRPSYIFMLEGFDKNWINANMKNYVQYTNLKPGKYTFKVKDISNPYPEPTSFTFIIEKPFWLSTPMIAVYILIFAGLTFLACRINRLFQYKIANKKLQQEQKDLISANEQLTVLSTVDELTGVGNRRQLDTVGKDLWRRGLDNKQPISLIMIDIDLFKQYNDLYGHQAGDNVLRTVAQTLQKKLRAKYDFVGRYGGEEFLVLLYNSSASETMKIAEKLRIEIKNLNIEHSAEKDKILTISLGAYTSVPNNELSYETMLSFADSALYKAKESGRDICKMYTE
protein production: failed

MSSARFDSSDRSAWYMGPVSRQEAQTRLQGQRHGMFLVRDSSTCPGDYVLSVSENSRVSHYIINSLPNRRFKIGDQEFDHLPALLEFYKIHYLDTTTLIEPAPRYPSPPMGSVSAPNLPTAEDNLEYVRTLYDFPGNDAEDLPFKKGEILVIIEKPEEQWWSARNKDGRVGMIPVPYVEKLVRSSPHGKHGNRNSNSYGIPEPAHAYAQPQTTTPLPAVSGSPGAAITPLPSTQNGPVFAKAIQKRVPCAYDKTALALEVGDIVKVTRMNINGQWEGEVNGRKGLFPFTHVKIFDPQNPDENE
protein production: not failed

MERIEAGMSVMTLKKQTYRVIAVINQGQELLVRAHEPETADIEIIPVTTVVQVTEQNSTGDAAVALDTVTVVGERYVDDIVATLTTLRVGMAVLLQRESGNQYDDNAISVWTLQHAKLGYIARYQNQPYATLMDQGQRLYGIVTVLDQQKQHLELMLWRTTAVPSPIEALQIRQRLAKPRTNLGAVPTHSLQTPLGTIVMMCNGHPIKYQQVPLSPWLTPADELHVTKRYLLTPDWSQVPPDSLITCQVTAKADVVQRWQNEHISAAVLTNASSFYVVGISAQTKTGLNDNLVDDAAQPAVIYRVGQVSAHMQAGFMVSWAPFGDPRVQPALKLALHFSSQPLVPYHPVTPSRTNATFTQQELAALLVSALPNYQGGQRLEPSVTTITVEKLRQTLGDQTYHALANYQRHVQLVAGSTEGVNETLLQALIHAVTYHELTTMHYYQPTVGMVDQVIYPIQLFSTTTKDEDDAQLVGCLALYNYETFEIQQVPLTAIARIAIIADPEHPQTTPETESPDWLRIFLHGWNDDFLEHHHHHH
protein production: not failed

MLATPFWYNAALKVLKPVYRWRIKKRAENEMRYQQECRERFGPFQQPQNRHALWFHAVSVGETNAAQPLIEYYLKLGHPVLVTNTTKTGQARAKSLFLKSPYLELFQAVYLPVDQIFLLKQFFELYQPKLLALVETELWPNLIDQAQHYGVPTFLINARLSEKSAQGYARVSALSNAMLSRLTGLLAQDQSTQQRFIGLGLAREKAQVVGNIKFDIDVPLEHHHHHH
protein production: failed

MVKVTYDGVYVLSVKDDVPAADVLHAGDLITEIDGNAFKSSQEFIDYIHSKKVGDTVKINYKHGDKNEQADIKLTAIDKKGTPGIGITLVDDLEHHHHHH
protein production: not failed

MMRSSKIGFRSLAVWPFSLTAFFFFLLHPCVSAQRVYKPEDVPNVQLADSTRLVTDEAGLLSNAQEEVMNGRLRAIRSSHAVEFAVVTLPSIGDAPLEDFTLKLARQWGVGNEKNNNGLLLVLVLDQRRVRFETGYGLEGYLPDGLLSRIIHDRMIPHFRSGNYAEGLSEGVLAVQQVLDGSYDVKPDGGDRSAVSRVSWGTIFIFYCFFMLLASASVLYQLTSYRRQYPRATAVEEYEFLRRRISMLGCVFLLLFPPGFIVVMAIIKSRQNKLKKEMAVCPCCHQHSVHLLDQSLEEDRYLSPSQQMEHKLKSRDFRVYACSSCDHTQIIGYDHPGTSYKRCPNCGTVALRYMGEKRVRTDRGMMIRKEWRCLYCGENHTQEYRDNNDAEAAATGILLGSLLGRGGRSGGFGGGFGGGGFGGGSFGGGGASGGWLEHHHHHH
protein production: failed

MQVIAFIAPLIDKGMDPLTGVPIRQEVPRLMERTFQENQAETYVLFLINLDRFKLVNDSLGEGYGDQVLQTLVRRLLWQLPNQQWIARVSGDEFIACAAIKGELPKKETLATYISSIIQQPFQVDEVQFTMTASIGAAVYPMDGKSVEMIWNSLERALRHAKARGGNCVSWFCQELKDEWIHPFRLENDLRRAVENQELEHHHHHH
protein production: failed

MNAAQVQALIRMGLPMAEDIDFRVERLDERHALARIPFHGKLVRPGGTLSGPTIMALADAAMYAVILGRLGAVEMAVTSNLNINFLSKPRPEDLLAEASILKLGRRQVVCEVGVFSQSNEEDLVAHVTGTYALPLLEHHHHHH
protein production: not failed

SRRRRSGTEPEKIEPGEGASRSRRDMLKDGGQQGLGTGARDPDKATRFRMEELRLTSTTFALTGDSAHNQAMVHWSGHNSSVILILTKLYDYNLGSITESSLWRSTDYGTTYEKLNDKVGLKTILSYLYVCPTNKRKIMLLTDPEIESSLLISSDEGATYQKYRLNFYIQSLLFHPKQEDWILAYSQDQKLYSSAEFGRRWQLIQESVVPNRFYWSVMGSSKEPDLVHLEARTVDGHSIYLTCRMQNCTEANRNKPFPGYIDPDSLIVQDDYVFVQLTSGGRPHYYVSYRRSPFAQMKLPKYALPKDMHVISTDENQVFAAVQEWNQNDTYNLYISDTRGVYFTLALENVQSSRGPEGNVMIDLYEVAGIKGMFLANKKIDNQVKTFITYNKGRDWRLLQAPDADLRGDPVHCLLPYCSLHLHLKVSENPYTSGIIASRDTAPSIIVASGNIGSELSDSDISMFVSSDAGNTWRQIFEEEHSILYLDQGGVLVAMKHTSLPIRHLWLSFDEGRSWSKYSFTSIPLFVDGVLGEPGEETLIMTVFGHFSHRSEWQLVKVDYKSIFDRRCAEEDYRPWQLHSQGEACIMGAKRIYKKRKSERKCMQGKYAGAMESEPCVCTEADFDCDYGYERHSNGQCLPAFWFNPSSLSKDCSLGQSYLNSTGYRKVVSNNCTDGVREQYTAKPQKCP
protein production: not failed

MAKYDVLTIGNAIVDIIARCDDSFLEENGIIKGAMNLINADRAELLYSRMGPAVEASGGSAGNTAAGVASLGGRAAYFGKVADDQLGEIFTHDIRAQGVHFQTKPLDGHPPTARSMIFVTEDGERSMNTYLGACVELGPEDVEDDVVAQSKVTYFEGYLWDPPRAKDAIREAARIAHAHGRETAMTLSDSFCVHRYRSEFLELMRSGTVDIVFANRQEALALYETEDFDRALELLARDCKLAAVTLSEEGSVVVRGAERVRVGASVLEQVVDTTGAGDLYAAGFLFGYTSGRSLEECSKLGNLAAGIVIGQIGPRPLVSLATAARQAALV
protein production: not failed
